The results in this text go back to patent publication US20160046707A1 (EISAI R AND D MANAGEMENT, published 2016).

Experiment [1] deals with T1, cynomolgus CCL20-secreted alkaline phosphatase (SEAP) fusion (cynomolgus monkey).
T1 construct: also called cCCL20; cynomolgus CCL20-SEAP; not shown: the SEAP reporter (cDNA from Clontech pSEAP-Enhancer) and its junction to CCL20
T1 chain: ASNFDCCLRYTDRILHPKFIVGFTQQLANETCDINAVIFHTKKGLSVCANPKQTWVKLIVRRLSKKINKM
Nature of the experiment: ELISA (fluorescent HRP substrate): CCL20-SEAP captured on anti-alkaline phosphatase in 5-fold dilutions from 20 nM (x axis, nM), antibody at 1 ug/ml. Here is the method:
(§1) To test whether the chimeric and humanized antibodies can bind to mouse, cynomolgus, or rhesus macaque CCL20 orthologs, we used ELISA assays as illustrated in FIG. 15. Recombinant secreted alkaline phosphatase (SEAP)-chemokine fusion proteins were engineered as described in Example 2, expressed and purified for all of the CCL20 orthologs tested. Nunc MaxiSorb flat-bottom black plates were coated with 1 μg/ml mouse anti-placental alkaline phosphatase antibody (Pierce, cat# MA1-19354) in 50 mM sodium bicarbonate, pH 9.4, overnight at 4° C. Plates were then blocked using 1× phosphate buffered saline with Tween-20 (PBST) with 5% bovine serum albumin (BSA) for 2 hours at room temperature. 20 nM SEAP-CCL20 fusion proteins were serially diluted 5-fold in Opti-MEM medium (Invitrogen). Chimeric and humanized (HC2/LC3 and HC2/LK3) antibodies were diluted to 1 μg/ml in 1×PBST with 5% BSA, added to the plates, and incubated for 1 hr at room temperature. The plates were then washed with 1×PBST with 5% BSA three times. […] QuantaBlu fluorescent HRP substrate (Pierce cat#15169) was added for detection of bound antibody by measuring fluorescence in a Molecular Devices M5 (Excitation 325 nm/Emission 420 nm) plate reader.
(§2) While the hamster anti-mouse CCL20 antibody 2F5-5 MAb bound mouse CCL20 with a 50% effective dose (EC₅₀) of 64 pM (data not shown), neither the chimeric nor humanized anti-human CCL20 antibodies bound detectably to mouse CCL20 or rat CCL20 under the conditions described above. By contrast, both the chimeric and humanized antibodies effectively bound to human, rhesus, and cynomolgus CCL20 (FIGS. 16A-C, 17A and B).

Experiment [2] addresses T2, rhesus CCL20-secreted alkaline phosphatase (SEAP) fusion (rhesus monkey).
T2 construct: also called rCCL20; rhesus CCL20-SEAP; not shown: the SEAP reporter (cDNA from Clontech pSEAP-Enhancer) and its junction to CCL20
T2 chain: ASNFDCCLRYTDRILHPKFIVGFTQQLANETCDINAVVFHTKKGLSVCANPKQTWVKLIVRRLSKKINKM
The experiment is described as above. Here is the method: as §1, §2

Experiment [3] addresses T3, human CCL20-secreted alkaline phosphatase (SEAP) fusion (human, UniProt P78556 27-96).
T3 construct: also called hCCL20; human CCL20-SEAP; not shown: secreted alkaline phosphatase (SEAP), cDNA from pSEAP-Enhancer vector (Clontech)
The experiment is described as above. Here is the method: as §1, §2

Experiment [4] concerns the target T1, cynomolgus CCL20-secreted alkaline …. Briefly: ELISA on CCL20-SEAP, Abs 450; x axis 'ug/ml' in 4-fold steps down from 10, taken as the antibody concentration as in FIG. 11C. A general note: ELISA stands for enzyme-linked immunosorbent assay.
The target of experiment [5] is T3, human CCL20-secreted alkaline …. Described as above.
The next experiment concerns the target T4, recombinant human CCL16 (human, UniProt O15467 24-120).
T4 construct: also called HCC-4
T4 sequence (looked up): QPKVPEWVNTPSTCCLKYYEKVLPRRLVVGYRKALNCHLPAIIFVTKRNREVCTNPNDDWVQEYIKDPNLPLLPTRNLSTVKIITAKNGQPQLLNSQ
Nature of the experiment: ELISA, plate-bound chemokine (1 ug/ml), antibody 10 ug/ml, OD450. The procedure, abridged:
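Wells coated overnight at 4 °C with 1 μg/ml recombinant human chemokine in PBS, blocked 1 h, then incubated 1 h at room temperature with antibodies at 10 μg/ml in 0.02% Tween 20/PBS. TMB development 15–30 min, stopped with 2 M H2SO4, OD read at 450 nm.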

Experiment [6] concerns the target T1, cynomolgus CCL20-secreted alkaline …. Briefly: ELISA, serially diluted CCL20-SEAP captured by anti-alkaline phosphatase antibody, antibody at 1 µg/ml; cynomolgus CCL20-SEAP. Here is the method:
as §1

The target of experiment [7] is T2, rhesus CCL20-secreted alkaline …. Nature of the experiment: ELISA, serially diluted CCL20-SEAP captured by anti-alkaline phosphatase antibody, antibody at 1 µg/ml; rhesus CCL20-SEAP. Here is the method: as §1, with “reader. […]” for “reader.”
The target in experiment [8] is T3, human CCL20-secreted alkaline …. Nature of the experiment: ELISA (fluorescent HRP substrate): CCL20-SEAP captured on anti-alkaline phosphatase in 5-fold dilutions from 20 nM (x axis, nM), antibody at 1 ug/ml; the text rounds this number to 62 pM. On the procedure:
as §1, with “reader. […]” for “reader.”

The target in experiment [9] is T5, mouse CCL20-secreted alkaline phosphatase (SEAP) fusion (mouse, UniProt O89093 28-97).
T5 construct: Expressed in HEK293E, used as culture supernatant; also called SEAP-tagged mouse CCL20; mCCL20; not shown: secreted alkaline phosphatase (SEAP), cDNA from pSEAP-Enhancer vector (Clontech)
T5 sequence: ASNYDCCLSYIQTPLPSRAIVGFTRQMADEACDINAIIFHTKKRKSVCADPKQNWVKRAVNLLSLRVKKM
Briefly: ELISA on CCL20-SEAP, Abs 450; x axis 'ug/ml' in 4-fold steps down from 10, taken as the antibody concentration as in FIG. 11C.

T3 sequence (P78556 27-96): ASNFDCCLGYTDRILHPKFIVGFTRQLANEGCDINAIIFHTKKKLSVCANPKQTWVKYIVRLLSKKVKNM

B1: humanized anti-human CCL20 antibody 36LK3/36HC2 (antibody, human IgG1, kappa, V domains shown)
VH: QVQLVQSGAEVKKPGASVKVSCKASGYTFTNYWMHWVRQAPGQGLEWMGVIDPSDSYTTYAQKFQGRVTMTVDTSTSTVYMELSSLRSEDTAVYYCARGNYGVDYAMDYWGQGTLVTVSS
VL: DIQMTQSPSSLSASVGDRVTITCGASENIYGALNWYQRKPGKAPKLLIYGATNLADGVPSRFSGSGSGRDYTLTISSLQPEDFATYYCQNVLITPYTFGQGTKLEIKR
notes: expressed in HEK293 cells; also called HC2/LK3; HC2LK3
Usually EC50 stands for the concentration that produces a half-maximal response. For orientation: EC50 (read off the curve) means the midpoint of the concentration-response curve. Read a high EC50 (read off the curve) as lower potency in that assay. For B1, the results for the EC50 in [1], in experiment [2] and in [3] were 0.162 nM, 0.0629 nM and 0.0459 nM, respectively. In addition, the “EC50 (read off the curve)” value in experiment [4] and in experiment [5] was ~0.02 µg/mL in each case.

B2: humanized anti-human CCL20 antibody 36LC3/36HC2 (antibody, human IgG1, kappa, V domains shown)
VH: QVQLVQSGAEVKKPGASVKVSCKASGYTFTNYWMHWVRQAPGQGLEWMGVIDPSDSYTTYAQKFQGRVTMTVDTSTSTVYMELSSLRSEDTAVYYCARGNYGVDYAMDYWGQGTLVTVSS
VL: DIQMTQSPSSLSASVGDRVTITCRASENIYGALNWYQQKPGKAPKLLIYGATNLADGVPSRFSGSGSGRQYSLTISSLQPEDFATYYCQNVLITPYTFGGGTKLEIKR
notes: expressed in HEK293 cells; also called HC2/LC3; HC2LC3
For B2, in the experiment with recombinant human CCL16, the binding result is on record as “no binding (tested: 10 ug/ml)”. Besides, the EC50 stood at 0.34 nM in experiment [6], 0.101 nM in experiment [7] and 0.0619 nM in experiment [8]. The half-maximal effective concentration (EC50 (read off the curve)) in experiment [4] and in experiment [5] was ~0.02 µg/mL throughout.

B3: mouse anti-human CCL20 monoclonal antibody 36F7C10 (antibody, V domains shown)
VH: QVQLQQPGAELVKPGASVKMSCKASGYTFTNYWMHWVKQRPGQGLEWIGVIDPSDSYTTYNQKFKGKATLTVDTSSSTAYMQLSSLTSEDSAVYYCTRGNYGVDYAMDYWGQGTSVTVSS
VL: DIQMTQSPASLSASVGETVTITCGASENIYGALNWYQRKQGKSPQLLIYGATNLADGMSSRFSGSGSGRQYSLKISSLHPDDVATYYCQNVLITPYTFGGGTKLEIK
notes: Mouse hybridoma antibody; also called MouseMAb; parental mouse clone 36F7C10
With B3, the binding result (with recombinant human CCL16; in [9]) was “no binding (tested: 10 ug/ml)” in each case.

B4: chimeric 36F7C10 antibody (36F7C10-hFc) (antibody, V domains shown)
VH: QVQLQQPGAELVKPGASVKMSCKASGYTFTNYWMHWVKQRPGQGLEWIGVIDPSDSYTTYNQKFKGKATLTVDTSSSTAYMQLSSLTSEDSAVYYCTRGNYGVDYAMDYWGQGTSVTVSS
VL: DIQMTQSPASLSASVGETVTITCGASENIYGALNWYQRKQGKSPQLLIYGATNLADGMSSRFSGSGSGRQYSLKISSLHPDDVATYYCQNVLITPYTFGGGTKLEIK
notes: also called chimeric 36F710; Chimeric MAb
In the case of B4, the results for the EC50 in [1], in experiment [2] and in experiment [3] were 0.101 nM, 0.0498 nM and 0.0336 nM, respectively.
